Results reported in the DeepSol protein solubility set.

assay: soluble on expression in E. coli; label from the status in PepcDB or PDB records

Soluble on expression in E. coli, not soluble:
MGSDKIHHHHHHMETITKKANLSLLELPSGGEESLFCRLYSPALAGPAPLIVLFHGFPGKQLNMDWAVQLQNLSFHVLVTSYRGTIGSPGAFRFRHVLEDATAIMQHVVSPEFTQAHDISADQISIVGHSMGGFAGLHAFIDVPDIAHYIGISPFNFGLIGQLVLDYPEHEEALQGVLSRGAQFLSHTDGDILLDELKRHHATWNLLSLKEQLGTRSALLVTSERDETSIKSLHHDLLQDASAFEQIIVDSDHNYIENREDAFRAWTTWLRRR, MGSDKIHHHHHHMETSEILKKVRQIEIKTRGLSNNIFAGQYHSAFKGRGMSFSEVREYQFGDDIRDIDWNVTARFNKPYVKVFEEERELTVMLMVDVSGSLEFGTVKQLKKDMVTEIAATLAFSAIQNNDKIGVIFFSDRIEKFIPPKKGRKHILYIIRELIDFQPESRRTNIRLALEYLTNVMKRRCTAFILSDFIDQDNFKNALTIANRKHDVVALQVYDRRVSDLPPVGLMRIKDAETGHEQWIDTSSKAVRRAHRDWWINKQTELNDTFTKSNVDSVSVRTDQDYVKALLNLFAKRN, MGSDKIHHHHHHMEVSEFCLEGRFINFVIKDGYKLKGLMLGTHEGEFYIKLAKQLRAAFDLRLPPGTWLQVVGYKKHDLKDGTITLKAERVMAARSEMGRVQTTTPVQEPPSIHNVKVKPAKAKATILVCQKSDCMKRGGKAVCQALEAALSDRGLEDQVTIKGTGCMKNCKAGPNLVMPDKTRHSRIQAAQVPRLMDKHFGDKSLEAQPENLREVAITNGKLC, MGSDKIHHHHHHMFAGAWKNYRNILCVRPDNMGDVLMSQPAMRALKESVPGRKITLLTSTAGACIAPFIPEVDETIPFDVPWVKTTETNGAQRLLALAGELLALQLDAAVIFTVYSQNPLPAGMLCYLAGIKAVLGYCRENPYQLINQWVPDREPLDYVVHEVERQLRLVEMAGAKTSDTRLLLKIPEETRKEATDRVWEILNVAGIRAGMGWLVLHAGVSEEKRLYPARDYITACQSLIRQGYKILLTGSGSERDYVDQIARQLSDAAINVAGELSIAELIVLVEAAPVLISNNTGPVHIATAVGTPVVVLYAMTNPQHTPWQVPSKVLYFEVLPELRTKNQLLQSFPGSSTPRASPEAIVAAVGELVSPRRKHGSFIPSPLRNPVPTCNSLPDTALAACFTPHNEYGMCPPIRYGEDV, MGSDKIHHHHHHMFAPFAGETSRGEADMSGDLDQATMDRLFAKARTYSKFTKAPVSDDLLRQAWDLARMGPTSVNCQPMRVVFVRSSAAKERLKPALAPGNLDKTMAAPVTAIIAHDMEFYEQLPKLFPHADARAWFVGNEAMIQSTAFRNGTLQGAYFILALRAIGLDCGPMSGFDNAKLDEAFFKGTTLRSNFLVNIGHGDAAGLYPRGPRLDFDEACRVE, MGSDKIHHHHHHMFDDKMSGNAMNAEIELKLFFLPIYQESLINKLDSLDNAVPQGKRRLANGYFDTPDLQLRQWDMGLRVRGYDAHREQTIKTAGQVVGGIHSRPEYNVTIQADSPDLSLFPASIWPADADLAATQAQLTCIFHTDFYRRSWHVQIDNSVVEVALDIGEITANGQQEALCELEFELLSGDTEALLKLAMQVASVVPVRLGKASKAQRGYRLAGKAKPLDLTALEFLPLAEPRDSSTQDLTANCQILLETALERWQLLESMIAEESKPEACVALWWRMRACIRLLRMTLSQFELLNVTLSSRFMSIEKQLDFIEQAQALTALLGSQRGLFAKLGQHAQVKARLMAQLSEIHLTERLLSLWQQTEYGQLQLAIVEILLKVSAGEVDISNQPSLRQHADRAQQASWMAIVEVMPLNTVMTSANYLQVAAVLDESILVGHAYGSLYEAKSRDAFRAPWQDLVLGIKTLACYRAVQDASRELDIDLNEWLEDKQQSLLFAMESTRRNAMQQQAYW, MGSDKIHHHHHHMFEHRFKDLHHTYRAIREVESEHHNIANIIKYVHKNNRVRQPSVGSHIRLRKKWEVEKSTLHARLSWDLERMQVWQLEHLSKLVDFAYNYVPFYHALYHEAGFRTGDIVTWSDFEKLPIVDKKMLVDNRSALCASIGFAPDNHHVARTSGSSGINFTIVQDDTSVDTRVVLNLRQTEMMVGHALSPDDWRYGIYLASERFTSLAGGYPVITVGQDCPAVDVFEHIQKIKPKILYAFPSYLKRLQVCAGDLTEWGVECICTNSEPSTQEERQVFARHFGVPVLDEYSSEEFSLIATECRYGRYHIVEDNLKAEVCNIDPEGWGTLVGTSFANTYMPFIRYSQGDIVKLDARQILCECGTHFRYLDTFHGRADQFLESKNNGKIPPDKLMGLYDSTLILETSGVKEFQIVQTHLDKIEIRIVLMDKEGAYNYALMSNFVSGIKQLFSGDPLTVSVHVLESIPAAKSYKRRLIVNMINS, MGSDKIHHHHHHMFENEILFDNGQHKFMFLGWEEKEEEIVQTNQYLILDGNEGILLDPGGAHVFPRVMSNVAEVVDLSSIRHIFYTHQDPDVTSGILLWLSICENAKIYISSLWVRFLPHFGIYDQKRIVPISDKGTKIKLLSGNELEILPAHFLHSTGNFVLYDPVAKILFSGDIGAAVFEKGKRYRYVDDFERHLPLMEAFHKRYMSSNAACKKWVDMVSKKKIDMIAPQHGAVFRGESVKKFLEWFRNLKCGVDLIDNLYSL, MGSDKIHHHHHHMFKDEKTPDEYAEEARSDIAAGNYAEAIEKIDKAIDKEPRNPSLHLIRADALYRQGNYSSAIEELNFTEHMDKNNPELFSLKSICYGSMGDFKRSKEEADKAIKADQSYPFAYYNRAAALRGLGDVDGAEKDFRKYIEMQPSDPDPHYDLAEIYFEKKDYKKAMEEVKAVLRNDKSNEKAYDLKLQIHLATNDGEGYFKALLEAFKNTENFKYIGTLTDGLIGIGSYDTAEDILKQFIKVYEKEPYLYDLLARTYDQEGKAKEADETYNTLLRLNNSRESHIYWFDYLLDSGRYDDLLSEIEKSGFKDEEILEIEYIAQDASGKHEEALKTAGELVKMDQTPYSRSLYATQLRKLGKLEDALTYLGSGDQDSDEVQFEKFNILLEMGNHSLAMESLKNSITASDDDEERLGHLITGISSAISKADFNTVNNFLDGLKMPEEEENIAVYALKGIVSGIFESYSKGKDMLIGLDEDRDNVCDFASYLANLMQGKASEFLNKFIEENCKKPEE, MGSDKIHHHHHHMFRHFRSRFGTPAWAGVNEDDFLLVRSWFGHGRHHGRDRDKHFGNEMFGRGWGDEHRTRRGDIKFILLELLSEHPSHGYDLIKEMETRYGGFRRLSPGSVYPTLQLLEEGGYLKSAQEGGKRIYTITDEGRKLLAERAQQETSDTPWDTVKSFVTGKPQEFIELRNAATELAAVVVQVARSGNVERINRVRELLEQVKREIYTILAEK, MGSDKIHHHHHHMFRPKLLFTSLAALALGACSPQDPQAVTSAAIANQVILPTYSRWVEADRTLAASALAYCEGKESLDKARADFLNAQKAWAELQPLLVGPLAEGNRAWQVQFWPDKKNLVGRQVEQLVNGDKPVDAEALGKSSVVVRGLSAYEYILFDSKPDIATAEQKARYCPLLVAIGAHQKALAEEILKGWNSTDGMLSQMTKFPNQRYADSHEAIADLLRAQVTALDTLKKKLGAPMGRQSKGIPQPLQAEAWRSHNSMNSLQASLKAAEAVWVGVDNQGLRGLLPSDQKALADKIDAAYATSLKLLADNQKTLGELLADDAGQQTLNQIYDSLNVVHRLHEGDLAKALNIQLGFNANDGD, MGSDKIHHHHHHMFSDFKKDFCLANPGYLLSHSVGRPLKSTEQVFKEAFFAPWQDSGREPWGQWLSVIDDFTFALSKLFNGHQKDFCPQVNLSSALAKILMSLARLNREHAVVLMSEIDFPSMGFAIKKALPASCEVRFIPKTLDITDANVWDAHMGSDIDLVFVSHAYSNTGQQAPLANILAMARQYGCLSVVDVAQSAGIIPLNLAQLQPDFLIGSSVKWLCSGPGAAYLWVNPSIIDSCQPKDVGWFSHENPFEFNIHDFRYHNSALRFWGGTPSIAPYAIAAHSIHYFADIGVEQLRKGNQLLIDIVAEALDQEFVSPREIEKRSGTLVLQFGEQQGQIMAALAKANISVDARSMGIRISPHIYNDKADIQLLLSVIKAHR, MGSDKIHHHHHHMFSSQKLKERRKKLGLSQAQTADKLGISRPSYFNWEIGKTKPNQKNLDKLAHLLKVDSAYFLSQHDIVEIYTRLNESNKTKTLKYSQYLLEQQDKERNLMKNKRYPYRVYEKLSAGTGYSYFGDGNFDTVFYDEEIDHDFASWIFGDSMEPIFLNGEVALIKQTGFDYDGAIYAIDWDGQTYIKKVYREETGLRLVSLNKKYADKFAPYDENPRIIGLIVGNFIPLEG, MGSDKIHHHHHHMFVGMDFGTTNSAVALAGADGSVEVLNFAAATGAASTLRSVLAFENARRDAQRRILPLAGHEAIEAYLHGDGDCRFLQSFKSYLTSRSFTSTAIYGAPYSLEELVALIIAQLRRTAEAAGAKVERVVAGRPVRFVAEGGEEEDAYATGRLVEAFAKAGITDVVFEYEPIAAAYYYESTLTRDQTVLVADFGGGTSDFCLIRLGPGRAGLARPEDAIIGTAGVGIAGDAFDRRIVEHGLSGHFGKYTTYVSDGKVLPMPAWVYAKLERWHHVAFLNTPSTMRLLRDLLRQVEHPDQVEQLLALIEHNLGYHLYRAVEQAKRDLSSADETVLRFDHDPVVVERRVTRAEFESWIGKELSAIESCVDGLLDGTGTALAQVDRVFLTGGSSLVPAVRAIFANRFGEDRLSAGGEFISVATGLAQRAREMG, MGSDKIHHHHHHMFVMLAMANVTTSAPRAVAPAYDPRLVRAAVAMNENDLPTAEPLLRALLKDDPFDVRAIRLFAELAGRIGRYQDAENLLRRAIELAPQFTAARANLALVLYRTNRAPEALEELAKVTADDPENVGHANLQAAAYGRIGEFDEALALYEQVLKQAAAQPRVWMSYGHMLKTVGRQADGVAAYRRAIELLPTLGEAWWSLANLKTVRFDDADIAAMEAALRVPDLAPEDQWHLDFALGKAFEDRGEAERSFRHYAAGNALRKKRMPYQAEEITAQVDRAVAAFTPATVAGLSGKGCEAGDPIFVLGMPRAGSTLVEQILASHSMVEGTSELADIGYLARTVEGYPAGLSSLQGNDLRALGEQYLARTRIQRHTDRPLFVDKMPNNWIHVPFIRAILPNAKIVDARRHPLSCCFSNFKQHFARGQGFSYSLEDMGRYYRDYVRAMAHFDKVIPGAVHRVIYERMVEDTEAEVRALLAYCGLAFEDNCLAFHRTERAVRTASSEQVRQPIFRDGTDAWKAFEPWLGELKVALGAVQDFYPEAPPFD, MGSDKIHHHHHHMFVNRRAELKILHSAYESLKRGEKVNVAIIGPRRIGKTELLLKFKEEVNGVVPYLNLQRIGSLESFIFAYTRELLYEIAKVVGMSIERSDLLTWDDLLILSAKLDLEREVKAIRDGTLETLFEMQEAILEKTGQKAVFILDEFQEVVNFKGFLETMRAVTEKQRNIAYFISGSAVRMMEEILAPKNPFFGQFKRVYLRGLPKEDTIELAKTTLERAGIEATHSALELIYKLTQGHPFYVLALCRRLIEEGFEKVKSRDVYYAFLTELLSEKGDIYMHLEYLFNESLSRAYKGPIHKQILLILAQEEGLRLSEIARRLNKPSGEVSNYLKFLLRTDLILKQGERYYFTDKLMRFWLAKTYLGITELELRRERFLEELVRELEEKYLKAKKELGIAKEAMIRERMREIFDIDFKPYRRGDVEFDGVAFRDGVYVLEIKWRNRPATYKDVKDFIRKVKGEFGSATMFFFSRSGFTEKAKELCEKEGVKMLTPKDLGIS
